Assay results from patent US20230015291.

Molecular target: rabbit skeletal muscle actin protein (Cytoskeleton, Denver, Colo., Catalog #AKL99-A), P68135

B1: recombinant wild-type human DNase1 (protein)
chain: LKIAAFNIQTFGETKMSNATLVSYIVQILSRYDIALVQEVRDSHLTAVGKLLDNLNQDAPDTYHYVVSEPLGRNSYKERYLFVYRPDQVSAVDSYYYDDGCEPCGNDTFNREPAIVRFFSRFTEVREFAIVPLHAAPGDAVAEIDALYDVYLDVQEKWGLEDVMLMGDFNAGCSYVRPSQWSSIRLWTSPTFQWLIPDSADTTATPTHCAYDRIVVAGMLLRGAVVPDSALPFNFQAAYGLSDQLAQAISDHYPVEVMLK
nuclease activity, SYTOX Green fluorescence assay (RFU over time), 4.5 nM enzyme with or without 40 ug/ml actin: The nuclease activity of the recombinant human DNase1 was inhibited by actin
